The values that follow come from article PMC12329599, “Acetylation of microtubule-binding PinX1 orchestrates ribosome biogenesis to nutrient starvation via the RNA polymerase I preinitiation complex” (The Journal of Biological Chemistry, 2025).

This assay addresses T1, Strep2-POLR1G (human, UniProt O15446 1-510).
T1 construct: POLR1G (RNA polymerase I subunit G), human, cloned into pET45a-Strep2; also called Strep2-tagged POLR1G; source: TSsetta (DE3) bacteria, purified (anti-Strep2 tag agarose beads)
As to the kind of experiment: pull-down; GST-PinX1 proteins on glutathione beads incubated with purified Strep2- or HA-tagged proteins in BC200 buffer (200 mM NaCl, 20 mM Tris-HCl pH 7.9, 20% glycerol, 0.2% NP-40) at 4 °C overnight; washed with BC500, BC200 or BC100; Western blot. The note with it: both partners purified. (In western blotting, separated proteins are transferred to a membrane and probed.)

T1 sequence (O15446 whole entry): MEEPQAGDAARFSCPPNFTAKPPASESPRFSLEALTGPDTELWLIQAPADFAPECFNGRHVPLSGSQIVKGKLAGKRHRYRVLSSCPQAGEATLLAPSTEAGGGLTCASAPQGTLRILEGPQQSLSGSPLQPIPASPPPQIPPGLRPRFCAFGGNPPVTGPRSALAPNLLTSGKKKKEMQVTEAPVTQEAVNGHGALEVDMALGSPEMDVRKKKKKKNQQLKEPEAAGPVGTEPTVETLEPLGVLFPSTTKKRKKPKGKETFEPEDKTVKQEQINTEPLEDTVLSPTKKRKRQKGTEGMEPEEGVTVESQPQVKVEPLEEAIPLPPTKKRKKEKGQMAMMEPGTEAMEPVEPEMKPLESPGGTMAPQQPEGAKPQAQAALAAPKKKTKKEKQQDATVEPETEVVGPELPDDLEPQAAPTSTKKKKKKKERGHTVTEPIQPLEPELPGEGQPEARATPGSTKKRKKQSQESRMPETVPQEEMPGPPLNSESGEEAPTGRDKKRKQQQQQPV

B1: GST-PinX1 full-length (natural protein, human, UniProt Q96BK5 1-328, looked up)
chain: MSMLAERRRKQKWAVDPQNTAWSNDDSKFGQRMLEKMGWSKGKGLGAQEQGATDHIKVQVKNNHLGLGATINNEDNWIAHQDDFNQLLAELNTCHGQETTDSSDKKEKKSFSLEEKSKISKNRVHYMKFTKGKDLSSRSKTDLDCIFGKRQSKKTPEGDASPSTPEENETTTTSAFTIQEYFAKRMAALKNKPQVPVPGSDISETQVERKRGKKRNKEATGKDVESYLQPKAKRHTEGKPERAEAQERVAKKKSAPAEEQLRGPCWDQSSKASAQDAGDHVQPPEGRDFTLKPKKRRGKKKLQKPVEIAEDATLEETLVKKKKKKDSK
notes: PinX1, human, full length, cloned into pGEX-4T-3; also called GST-PinX1 FL; full length GST-PinX1; source: TSsetta (DE3) bacteria, IPTG-induced, purified (Glutathione-Sepharose 4B)
For B1, the binding result is on record as “binds”.

B2: GST-PinX1 central section (aa 70–253) (domain or fragment, human, UniProt Q96BK5 70-253, looked up)
chain: TINNEDNWIAHQDDFNQLLAELNTCHGQETTDSSDKKEKKSFSLEEKSKISKNRVHYMKFTKGKDLSSRSKTDLDCIFGKRQSKKTPEGDASPSTPEENETTTTSAFTIQEYFAKRMAALKNKPQVPVPGSDISETQVERKRGKKRNKEATGKDVESYLQPKAKRHTEGKPERAEAQERVAKKK
notes: the truncations were of GST-PinX1; also called GST-PinX1 truncation; source: TSsetta (DE3) bacteria, IPTG-induced, purified (Glutathione-Sepharose 4B)
As to B2, the binding result was “binds”.
